Experimental data from US12312397B2, “Anti-O2 antibodies and uses thereof” (priority 2016, dated 2025).

Experiments:
[1] = test system: K. pneumoniae 8570ΔcpsBLux (O2); test: Opsonophagocytic killing (OPK) assay, O2 capsule mutant; assay type: cell-based, Klebsiella pneumoniae; parameters: key to D Capsule OPK O2: +++: Strongly positive activity; +: Positive activity; +/−: Somewhat positive depending upon the test conditions; details: for D Capsule OPK O2: capsule mutant strain 8570ΔcpsB lux (O2); for OPK activity against O2 capsule mutant: secondary screening
Method: (§1) OPK activity of anti-O2 LPS mAbs was tested against O1 and O2 strains. Briefly, log phase cultures of luminescent K. pneumoniae strains 8570ΔcpsBLux (O2) and 43816ΔcpsBLux (O1) were diluted to ˜2×10^6 cells/ml. K. pneumoniae cells, 5e5/well dimethylformamide (DMF) differentiated HL-60 cells, cleared baby rabbit serum (1:10 Cedarlane), and a series dilution of antibodies (2 ng-2.5 μg/mL) were mixed in 96-well plates and incubated at 37° C. for two hours with shaking (250 rpm). The relative light units (RLUs) were then measured using a multi-mode microplate reader (Synergy 2, Biotek or envision multilabel plate reader, Perkin Elmer). The percentage of killing was determined by comparing RLU derived from assays with no antibodies to RLU derived from assays with anti-K. pneumoniae mAbs and assays performed with a negative control mAb. Positive killing was determined where the percentage of killing is above 40%.

O1 LPS = test: ELISA binding to O1 LPS; parameters: species or system Klebsiella pneumoniae; details: secondary screening
Method: (§2) The coated plates were incubated with cell culture supernatants from polyclonally stimulated lymphocytes (AMVBRA) or from monoclonal immortalized B cells (donor interrogations) containing fully human antibodies or with diluted plasma samples (PBMC donor selections) for 1 hour at room temperature. The plates were then washed with PBS containing 0.1% Tween-20 (PBS-T). Secondary antibody was added; either Alkaline Phosphatase-conjugated Goat Anti-Human IgG-AP (Southern Biotech, 2040-04, 1:1000 in PBS-B) or Peroxidase AffiniPure F(ab′)2 Fragment Goat Anti-Human IgG, Fc Fragment Specific (Jackson ImmunoResearch #309 036 098, 1:5000 in PBS-B) were used. Secondary antibodies were typically incubated for 1 h. Plates were washed three times with PBS-T, and P-NitroPhenyl Phosphate (pNPP, Sigma-Aldrich, cat #N2765-100TAB) or Sureblue (KPL, 53-00-03) substrates were added and incubated for 10 min or until the development of a colorimetric reaction. In the case of the HRP substrate Sureblue, the reaction was stopped by adding an equal volume of 0.2N HCl. The absorbance at 405 nm (pNPP) or 450 nm (Sureblue) was measured by a microplate reader (Biotek, Elx808).
(§3) The coated plates were incubated with serial dilutions of the monoclonal antibodies for 1 hour at room temperature. The plates were then washed with PBS containing 0.1% Tween-20 (PBS-T). Alkaline Phosphatase-conjugated Goat Anti-Human IgG (Southern Biotech, 2040-04, 1:1000 in PBS-B) was added. The secondary antibody reactions were incubated for 1 h. Plates were washed three times with PBS-T, and P-NitroPhenyl Phosphate (pNPP, Sigma-Aldrich, cat #N2765-100TAB) substrate was added and incubated for 30 min or until the development of a colorimetric reaction. The absorbance at 405 nm was measured by a microplate reader (Biotek, Elx808). The data was plotted with Graphpad Prism software. Representative mAbs from each class were tested for their binding to O1 LPS (FIG. 2A) and O2 LPS (FIG. 2B), and EC50 values were obtained (FIG. 2C). The majority of the anti-O2 LPS mAbs bound to both O1 and O2 LPS by ELISA. […] None of these LPS mAbs bound to the 03, 04, 05, 07, or 012 LPS serotypes (see e.g., FIG. 1A).

O2 LPS = test: ELISA binding to O2 LPS; parameters: species or system Klebsiella pneumoniae; details: secondary screening, ELISA
Method: as §2, §3

[2] = test system: O2 LPS activation of NF-κB in RAW264.7-lux cells; test: LPS neutralization assay (NF-κB luciferase, RAW264.7-lux), O2 LPS; assay type: cell-based, murine; parameters: key to LPS Neut O2: +++: Strongly positive activity; +: Positive activity; +/−: Somewhat positive depending upon the test conditions; details: for LPS Neut O2: Table 7 summary; for neutralizing activity against O2 LPS (NF-κB activation): human IgG1 format; for neutralization of LPS-O2: secondary screening
Method: (§4) Activation of TLR4 receptors by bacterial LPS leads to downstream activation of the NF-κB transcriptional regulator. A decrease in induction of NF-κB-responsive luciferase activity was used to quantify LPS neutralization activity by LPS mAbs. A murine RAW264.7 macrophage cell line was engineered to carry a firefly luciferase reporter gene under the control of an NF-κB-responsive promoter (RAW264.7-lux). Serially diluted antibody stocks were mixed with LPS in a 1:1 ratio and incubated at 4° C. for 1 hr. Antibody/LPS mixtures were then diluted 1:10 into assay plates containing pre-seeded RAW264.7-lux cells (4e5 cells/well), which were then placed at 37° C. with 5% CO2 for 2.5 hours. Following incubations, Steady Glo solution (Promega) was added to each well and incubated for another 20 min protected from light. The relative light units (RLUs) were measured using a multi-mode microplate reader (Synergy 2, Biotek or envision multilabel plate reader, Perkin Elmer). The percentage of inhibition was determined by comparing RLU derived from assays with no antibodies to RLU derived from assays with anti-K. pneumoniae mAbs and assays performed with a negative control mAb. […] All mAbs were tested in human IgG1 format.

[3] = test system: K. pneumoniae 43816ΔcpsBLux (O1); test: Opsonophagocytic killing (OPK) assay, O1 capsule mutant; assay type: cell-based, Klebsiella pneumoniae; parameters: key to D Capsule OPK O1: +++: Strongly positive activity; +: Positive activity; +/−: Somewhat positive depending upon the test conditions; details: capsule mutant strain 43816ΔcpsB lux (O1)
Method: as §1

[4] = test system: O1 LPS activation of NF-κB in RAW264.7-lux cells; test: LPS neutralization assay (NF-κB luciferase, RAW264.7-lux), O1 LPS; assay type: cell-based, murine; details: for neutralizing activity against O1 LPS (NF-κB activation): human IgG1 format; for neutralization of LPS-O1: secondary screening
Method: as §4

Molecule | D Capsule OPK O2 [1] | binding to LPS-O1 (O1 LPS) | binding to LPS-O2 (O2 LPS) | LPS Neut O2 [2] | neutralizing activity against O2 LPS (NF-κB activation) [2] | neutralization of LPS-O2 [2] | D Capsule OPK O1 [3] | neutralizing activity against O1 LPS (NF-κB activation) [4] | OPK activity against O2 capsule mutant [1] | neutralization of LPS-O1 [4]
KPL36: Class II anti-O2 antigen human mAb; VH SEQ ID NO: 189, VL SEQ ID NO: 192 (antibody, V domains shown, Description of Artificial Sequence: SyntheticKPL36 VH polypeptide; Description of Artificial Sequence: SyntheticKPL36 VL polypeptide) VH: EVQLVESGGGVVQSGGSLRLSCETSGFTFISSWMSWVRQAPGTGLEWVATINPDGTETPYADSLKGRFTISRDNTKKSLYLQIHSLRADDTAVYFCARNKAYNAHDFWGQGTLVMVSS VL: QSALTQPPSASGSPGQSVTISCTGTSSDVGGNNFVSWYQQYPGKAPKLIIYEVNKRPSGVPDRFSGSKSGNTASLTVSGLQAEDEADYYCGAFGGSKMFGGGTKLTVL | + | confirmed to bind | confirmed to bind | + | moderate neutralizing activity | neutralize | + | no activity |  | 
KPN44: anti-O2 antigen human mAb; VH SEQ ID NO: 62, VL SEQ ID NO: 63 (antibody, V domains shown, Description of Artificial Sequence: SyntheticKPN44 VH polypeptide; Description of Artificial Sequence: SyntheticKPN44 VL polypeptide) VH: QVQLQESGPGLVKPSETLSLTCTVSGGSTSSYYWNWIRQAPGKPLQWIANIHHGGTTYYNPSLRSRVTMSLDTSNNQFSLKLTSVTAADTAVYFCARESDDGYRWNYFDYWGQGVLVTVSS VL: EIVLTQSPASLSLSPGDRATLSCRASQTITNYLAWYQHKPGQAPRLLIFDMSKRATGIPARFSGSGSGTDFTLTISSLEPEDFAVYYCQHRSNWPLFTFGPGTNVDIK |  | bind | bind |  | blocked | neutralize |  | blocked | showed OPK activity | neutralize
KPN17: Class I anti-O2 antigen human mAb; VH SEQ ID NO: 71, VL SEQ ID NO: 72 (antibody, V domains shown, Description of Artificial Sequence: SyntheticKPN17 VH polypeptide; Description of Artificial Sequence: SyntheticKPN17 VL polypeptide) VH: EVQLVESGGGLVQPGGSLRLSCAASGFTFSHFWMHWVRQAPGQGLVWVARIDGSVTNLRYAGSVEGRFTISRDNAKNTLYLQMNSLRDEDTAVYYCARDLVGIGTPAGYGMDVWGQGTTVTVSS VL: DIQLTQSPSFLSASVGDRVTITCRASQGISTYLAWYQQKPGKAPKLLIYAASTLQSGVPSRFSGSGSGTEFTLTINSLQSEDFATYYCQQLTSHLYTFGQGTKLEIK | + | bind | bind | +/− | moderate neutralizing activity | neutralize |  | no activity | showed OPK activity | 
KPS24: Class III anti-O2 antigen human mAb; VH SEQ ID NO: 107, VL SEQ ID NO: 108 (antibody, V domains shown, Description of Artificial Sequence: SyntheticKPS24 VH polypeptide; Description of Artificial Sequence: SyntheticKPS24 VL polypeptide) VH: ELHLVESGGGLVKPGGSLRLSCAASGFTFKNAWMSWIRQAPGKGLEWVGRVKSEVDGGTTDYGVPVRGRFTISRDDSQSTLSLEMSSLQDDDTGVYYCRAFWSDFQTGYWGQGTLVTVSS VL: QSVLTQPPSVSAAPGQTVTIACSGSSSNIGSDSVSWFQQLPGTAPRVLMYENNKRPSGISDRFSGSKSGTSVTLGITGLQTGDEADYYCAAWDSSLRAYVFGSGTKVTVL | +++ |  | bound specifically | +/− | moderate neutralizing activity | neutralized |  | no activity | strong OPK activity | 
KPS30: Class I anti-O2 antigen human mAb; VH SEQ ID NO: 125, VL SEQ ID NO: 126 (antibody, V domains shown, Description of Artificial Sequence: SyntheticKPS30 VH polypeptide; Description of Artificial Sequence: SyntheticKPS30 VL polypeptide) VH: EMQLVESGGGLVQPGVSLRLSCVDSGFSFSTSWLAWVRQAPGKGLEWLANIDPDGSTRNHVDSVRGRFTISRDNAKNSLYLQMNSLRAEDTAVYYCARDYAYNRFDYWGQGTMVTVSS VL: QSALTQPPSASGSPGQSVVISCTGTSSDIGANNYVSWYQQHPGKAPKLLLYEVNKRPSGVPDRFSASKSGNTASLTVSGLLAEDEADYYCCGYGGGRVFGGGTKLTVL | +++ | bound | bound |  |  | neutralized |  |  | strong OPK activity | neutralized
